We go through one molecule from publication PMC6717114 (Biochemical Journal, 2019).

The target of the test is Mouse Pcdh15 EC1-2 wild-type (mouse, UniProt Q99PJ1-18 27-259). Put plainly: single-molecule force spectroscopy.

B1: Mouse Cdh23 EC1-2 wild-type (domain or fragment, UniProt Q99PF4 24-228, looked up)
chain: QVNRLPFFTNHFFDTYLLISEDTPVGSSVTQLLARDMDNDPLVFGVSGEEASRFFAVEPDTGVVWLRQPLDRETKSEFTVEFSVSDHQGVITRKVNIQVGDVNDNAPTFHNQPYSVRIPENTPVGTPIFIVNATDPDLGAGGSVLYSFQPPSPFFAIDSARGIVTVIQELDYEVTQAYQLTVNATDQDKTRPLSTLANLAIIITD
With B1, the koff (in general, the rate constant with which the complex falls apart) was determined as 0.0045 s⁻¹.
